Data reported in patent US20190002534A1 (UNIVERSITY OF MASSACHUSETTS, published 2019).

Assays:
Experiment in all cases: cell-based or functional assay
[1] = biological target: G glycoprotein of rabies virus street isolate Gray fox (Test B) (rabies virus, isolate Gray fox (Fox …))
[2] = biological target: G glycoprotein of rabies virus street isolate Skunk south-central (Test B) (rabies virus, isolate Skunk …)
[3] = biological target: G glycoprotein of rabies virus street isolate Raccoon (Florida) (rabies virus, isolate Raccoon (Florida))
[4] = biological target: G glycoprotein of rabies virus street isolate Lasiurus cinereus (Arkansas) (Test B) (rabies virus, isolate Lasiurus cinereus …)
[5] = biological target: G glycoprotein of rabies virus street isolate Skunk (north-central) (Test B) (rabies virus, isolate Skunk …)
[6] = biological target: G glycoprotein of rabies virus street isolate SW E fuscus (Test B) (rabies virus, isolate SW E fuscus …)
[7] = biological target: G glycoprotein of rabies virus street isolate Eastern pipistrelle (Test B) (rabies virus, isolate Eastern …)
[8] = biological target: G glycoprotein of rabies virus street isolate Eptesicus fuscus (Nebraska) (Test B) (rabies virus, isolate Eptesicus fuscus …)
[9] = biological target: G glycoprotein of rabies virus street isolate Tadarida (Test B) (rabies virus, isolate Tadarida sp. …)
[10] = biological target: T1, G glycoprotein of rabies virus street isolate PR Mong (rabies virus, isolate PR Mong …)
[11] = biological target: T2, G glycoprotein of rabies virus street isolate NC SK (rabies virus, isolate NC SK (Skunk, …))
[12] = biological target: T3, G glycoprotein of rabies virus street isolate WA Bat (rabies virus, isolate WA Bat …)
[13] = biological target: T4, G glycoprotein of rabies virus street isolate TX SK 4380 (rabies virus, isolate TX SK 4380 …)
[14] = biological target: T5, G glycoprotein of rabies virus street isolate AK fox (rabies virus, isolate AK fox (Fox, …))
[15] = biological target: T6, G glycoprotein of rabies virus street isolate Myotis (rabies virus, isolate Myotis (Myotis …))
[16] = biological target: T7, G glycoprotein of rabies virus street isolate RAC (rabies virus, isolate RAC (Raccoon, …))
[17] = biological target: T8, G glycoprotein of rabies virus street isolate Sonora Dog (rabies virus, isolate Sonora Dog (Dog, …))
[18] = biological target: T9, G glycoprotein of rabies virus street isolate C1434 (rabies virus, isolate C1434 …)
[19] = biological target: T10, G glycoprotein of rabies virus street isolate CO Bat EF6938 (rabies virus, isolate CO Bat EF6938 …)
[20] = biological target: T11, G glycoprotein of rabies virus street isolate Bat EF (rabies virus, isolate Bat EF (Eptesicus …))
[21] = biological target: T1, G glycoprotein of rabies virus street …; remark: listed apart in the source
[22] = biological target: G glycoprotein of rabies virus street isolate TN33 (rabies virus, isolate TN33 (Lasiurus …))
[23] = biological target: T2, G glycoprotein of rabies virus street …; remark: listed apart in the source
[24] = biological target: T3, G glycoprotein of rabies virus street …; remark: listed apart in the source
[25] = biological target: T4, G glycoprotein of rabies virus street …; remark: listed apart in the source
[26] = biological target: T5, G glycoprotein of rabies virus street …; remark: listed apart in the source
[27] = biological target: T6, G glycoprotein of rabies virus street …; remark: listed apart in the source
[28] = biological target: G glycoprotein of rabies virus isolate Texas coyote 323R (rabies virus, isolate Texas coyote 323R)
[29] = biological target: G glycoprotein of rabies virus street isolate TN410 (rabies virus, isolate TN410 (Lasiurus …))
[30] = biological target: T7, G glycoprotein of rabies virus street …; remark: listed apart in the source
[31] = biological target: G glycoprotein of rabies virus street isolate CASK (rabies virus, isolate CASK (Skunk, U.S. …))
[32] = biological target: T8, G glycoprotein of rabies virus street …; remark: listed apart in the source
[33] = biological target: G glycoprotein of rabies virus street isolate AZ fox 2400 (rabies virus, isolate AZ fox 2400 (Fox …))
[34] = biological target: T9, G glycoprotein of rabies virus street …; remark: listed apart in the source
[35] = biological target: G glycoprotein of rabies virus street isolate CABat (rabies virus, isolate CABat (Myotis …))
[36] = biological target: G glycoprotein of rabies virus street isolate TX Fox (rabies virus, isolate TX Fox (Fox …))
[37] = biological target: G glycoprotein of rabies virus street isolate TN132 (rabies virus, isolate TN132 (Lasiurus …))
[38] = biological target: G glycoprotein of rabies virus street isolate 1625 Bat (rabies virus, isolate 1625 Bat …)
[39] = biological target: G glycoprotein of rabies virus street isolate TN269 (rabies virus, isolate TN269 (Lasiurus …))
[40] = biological target: G glycoprotein of rabies virus street isolate FLBat 769 (rabies virus, isolate FLBat 769 …)
[41] = biological target: T10, G glycoprotein of rabies virus street …; remark: listed apart in the source
[42] = biological target: T11, G glycoprotein of rabies virus street …; remark: listed apart in the source
[43] = biological target: G glycoprotein of rabies virus street isolate VA1340 (rabies virus, isolate VA1340 (Lasiurus …))
[44] = biological target: G glycoprotein of rabies virus street isolate VA399 (rabies virus, isolate VA399 (Lasiurus …))
[45] = biological target: G glycoprotein of rabies virus street isolate AZ Bat LC (rabies virus, isolate AZ Bat LC …)

B1: anti-rabies virus human monoclonal antibody 2B10 (antibody, V domains shown)
VH: EVQLVQSGGGLVHPGGSLRLSCAGSGFTFSYFAMHWVRQAPGKGLEWVSTIGTGGGTYYADSVKGRFTISRDNAKNSLYLQMNSLRAEDMAVYYCARDNALRSFDWLFYSFDYWGQGTLVTVSS
VL: EIVLTQSPGTLSLSPGERATLSCRASQSISSSYLAWYQQKPGQAPRLLIYGASSRATGIPDRFSGSGSGTDFTLTISRLEPEDFAVYYCQRYGSSYTFGQGTKLEIK
[1]
  EC50 neutralization by RFFIT (Test B): < 0.0002 µg/mL
[2]
  EC50 neutralization by RFFIT (Test B): 0.002 µg/mL
[3]
  EC50 neutralization by RFFIT (Test B): 0.005 µg/mL
[4]
  EC50 neutralization by RFFIT (Test B): 117 µg/mL
[5]
  EC50 neutralization by RFFIT (Test B): 0.005 µg/mL
[6]
  EC50 neutralization by RFFIT (Test B): 0.005 µg/mL
[7]
  EC50 neutralization by RFFIT (Test B): 0.033 µg/mL
[8]
  EC50 neutralization by RFFIT (Test B): 0.014 µg/mL
[9]
  EC50 neutralization by RFFIT (Test B): 0.011 µg/mL
[10]
  EC50 neutralization by RFFIT: 0.006 µg/mL
[11]
  EC50 neutralization by RFFIT: 0.004 µg/mL
[12]
  EC50 neutralization by RFFIT: 0.009 µg/mL
[13]
  EC50 neutralization by RFFIT: 0.005 µg/mL
[14]
  EC50 neutralization by RFFIT: 0.004 µg/mL
[15]
  EC50 neutralization by RFFIT: 0.008 µg/mL
[16]
  EC50 neutralization by RFFIT: 0.03 µg/mL
[17]
  EC50 neutralization by RFFIT: 0.006 µg/mL
[18]
  EC50 neutralization by RFFIT: 0.008 µg/mL
[19]
  EC50 neutralization by RFFIT: 0.01 µg/mL
[20]
  EC50 neutralization by RFFIT: 0.015 µg/mL
[21]
  EC50 neutralization by RFFIT (Test A): 0.006 µg/mL
[22]
  EC50 neutralization by RFFIT (Test A): 1620 µg/mL
[23]
  EC50 neutralization by RFFIT (Test A): 0.004 µg/mL
[24]
  EC50 neutralization by RFFIT (Test A): 0.009 µg/mL
[25]
  EC50 neutralization by RFFIT (Test A): 0.005 µg/mL
[26]
  EC50 neutralization by RFFIT (Test A): 0.004 µg/mL
[27]
  EC50 neutralization by RFFIT (Test A): 0.008 µg/mL
[28]
  EC50 neutralization by RFFIT (Test A): 1.57 µg/mL
[29]
  EC50 neutralization by RFFIT (Test A): 222 µg/mL
[30]
  EC50 neutralization by RFFIT (Test A): 0.03 µg/mL
[31]
  EC50 neutralization by RFFIT (Test A): 0.48 µg/mL
[32]
  EC50 neutralization by RFFIT (Test A): 0.006 µg/mL
[33]
  EC50 neutralization by RFFIT (Test A): 0.043 µg/mL
[34]
  EC50 neutralization by RFFIT (Test A): 0.008 µg/mL
[35]
  EC50 neutralization by RFFIT (Test A): 0.004 µg/mL
[36]
  EC50 neutralization by RFFIT (Test A): 0.02 µg/mL
[37]
  EC50 neutralization by RFFIT (Test A): > 2400 µg/mL
[38]
  EC50 neutralization by RFFIT (Test A): 83 µg/mL
[39]
  EC50 neutralization by RFFIT (Test A): > 2400 µg/mL
[40]
  EC50 neutralization by RFFIT (Test A): > 2400 µg/mL
[41]
  EC50 neutralization by RFFIT (Test A): 0.01 µg/mL
[42]
  EC50 neutralization by RFFIT (Test A): 0.015 µg/mL
[43]
  EC50 neutralization by RFFIT (Test A): > 2400 µg/mL
[44]
  EC50 neutralization by RFFIT (Test A): 864 µg/mL
[45]
  EC50 neutralization by RFFIT (Test A): 422 µg/mL

B2: anti-rabies virus human monoclonal antibody 17C7 (antibody, V domains shown)
VH: QVQLVESGGGVVQPGRSLRLSCAASGFTFSTYAMHWVRQAPGKGLEWVAVVSYDGRTKDYADSVKGRFTISRDNSKNTLYLQMNSLRTEDTAVYFCARERFSGAYFDYWGQGTLVTVSS
VL: EIVLTQSPATLSLSPGERATLSCRASQSVSSYLAWYQQKPGQAPRLLIYDASNRATGIPARFSGSGSGTDFTLTISSLEPEDFAVYSCQQRNNWPPTFGGGTKVEIK
[1]
  EC50 neutralization by RFFIT (Test B): 0.002 µg/mL
[2]
  EC50 neutralization by RFFIT (Test B): 0.0004 µg/mL
[3]
  EC50 neutralization by RFFIT (Test B): 1000 µg/mL
[4]
  EC50 neutralization by RFFIT (Test B): 10.4 µg/mL
[5]
  EC50 neutralization by RFFIT (Test B): 7.36 µg/mL
[6]
  EC50 neutralization by RFFIT (Test B): 675 µg/mL
[7]
  EC50 neutralization by RFFIT (Test B): 143 µg/mL
[8]
  EC50 neutralization by RFFIT (Test B): 0.002 µg/mL
[9]
  EC50 neutralization by RFFIT (Test B): 1.05 µg/mL
[10]
  EC50 neutralization by RFFIT: 0.007 µg/mL
[11]
  EC50 neutralization by RFFIT: 0.8 µg/mL
[12]
  EC50 neutralization by RFFIT: 0.87 µg/mL
[13]
  EC50 neutralization by RFFIT: 0.006 µg/mL
[14]
  EC50 neutralization by RFFIT: 0.005 µg/mL
[15]
  EC50 neutralization by RFFIT: 0.004 µg/mL
[16]
  EC50 neutralization by RFFIT: 0.027 µg/mL
[17]
  EC50 neutralization by RFFIT: 0.006 µg/mL
[18]
  EC50 neutralization by RFFIT: 0.154 µg/mL
[19]
  EC50 neutralization by RFFIT: 0.182 µg/mL
[20]
  EC50 neutralization by RFFIT: 0.512 µg/mL
[21]
  EC50 neutralization by RFFIT (Test A): 0.007 µg/mL
[22]
  EC50 neutralization by RFFIT (Test A): 9.11 µg/mL
[23]
  EC50 neutralization by RFFIT (Test A): 0.8 µg/mL
[24]
  EC50 neutralization by RFFIT (Test A): 0.87 µg/mL
[25]
  EC50 neutralization by RFFIT (Test A): 0.006 µg/mL
[26]
  EC50 neutralization by RFFIT (Test A): 0.005 µg/mL
[27]
  EC50 neutralization by RFFIT (Test A): 0.004 µg/mL
[28]
  EC50 neutralization by RFFIT (Test A): 0.01 µg/mL
[29]
  EC50 neutralization by RFFIT (Test A): 8 µg/mL
[30]
  EC50 neutralization by RFFIT (Test A): 0.027 µg/mL
[31]
  EC50 neutralization by RFFIT (Test A): 0.006 µg/mL
[32]
  EC50 neutralization by RFFIT (Test A): 0.006 µg/mL
[33]
  EC50 neutralization by RFFIT (Test A): 0.211 µg/mL
[34]
  EC50 neutralization by RFFIT (Test A): 0.154 µg/mL
[35]
  EC50 neutralization by RFFIT (Test A): 0.006 µg/mL
[36]
  EC50 neutralization by RFFIT (Test A): 0.023 µg/mL
[37]
  EC50 neutralization by RFFIT (Test A): 414 µg/mL
[38]
  EC50 neutralization by RFFIT (Test A): 80 µg/mL
[39]
  EC50 neutralization by RFFIT (Test A): 400 µg/mL
[40]
  EC50 neutralization by RFFIT (Test A): 80.2 µg/mL
[41]
  EC50 neutralization by RFFIT (Test A): 0.182 µg/mL
[42]
  EC50 neutralization by RFFIT (Test A): 0.512 µg/mL
[43]
  EC50 neutralization by RFFIT (Test A): 199 µg/mL
[44]
  EC50 neutralization by RFFIT (Test A): 21.9 µg/mL
[45]
  EC50 neutralization by RFFIT (Test A): 10 µg/mL
